The Human Domainome abundance scans (Beltran et al. 2025)
± gives the uncertainty stated by the source.

B1: Protein C-ets-1, residues 55 to 135; numbered along this chain, P14921 (parent)
chain: GFTKEQQRLGIPKDPRQWTETHVRDWVMWAVNEFSLKGVDFQKFCMNGAALCALGKDCFLELAPDFVGDILWEHLEILQKE
B2: Transcription factor SOX-11, residues 50 to 117; numbered along this chain, P35716 (parent)
chain: KRPMNAFMVWSKIERRKIMEQSPDMHNAEISKRLGKRWKMLKDSEKIPFIREAERLRLKHMADYPDYK

Variants of: B1
Assay: abundance fitness (aPCA) (normalised: wild type 0, dead -1); higher = more abundant; growth selection in yeast, the domain comes from the species named
Conditions: Homo sapiens

| Variant | abundance fitness |
| --- | --- |
| C52W | -0.641 ± 0.046 |
| D57A | -0.049 ± 0.029 |
| D57S | -0.027 ± 0.03 |
| D57M | -0.158 ± 0.05 |
| L60Q | 0.027 ± 0.067 |
| L60E | -0.113 ± 0.061 |
| L60R | -0.042 ± 0.033 |
| R24H | 0.051 ± 0.087 |
| R24M | 0.023 ± 0.062 |
| R24S | -0.152 ± 0.035 |
| P15W | -0.685 ± 0.085 |
| P15N | -0.717 ± 0.21 |
| P15Y | -1.07 ± 0.38 |
| F59L | -0.252 ± 0.032 |
| F59P | -0.984 ± 0.078 |
| F59I | -0.414 ± 0.064 |
| W18H | -1.05 ± 0.27 |
| W18V | -0.891 ± 0.077 |
| W18T | -0.999 ± 0.13 |
| W18D | -0.962 ± 0.24 |
| W18A | -0.967 ± 0.082 |
| Q17L | -0.088 ± 0.045 |
| Q17I | -0.114 ± 0.081 |
| Q17G | -0.159 ± 0.033 |
| Q42S | -0.007 ± 0.036 |
| Q42E | 0.021 ± 0.068 |

| Variant | abundance fitness |
| --- | --- |
| Q42M | -0.237 ± 0.066 |
| Q42C | -0.259 ± 0.061 |
| G38D | -0.039 ± 0.05 |
| G38R | -0.18 ± 0.029 |
| G38L | -0.492 ± 0.038 |
| G38N | 0.052 ± 0.098 |
| G38H | 0 ± 0.082 |
| W26T | -0.954 ± 0.06 |
| W26H | -0.822 ± 0.089 |
| W26K | -0.727 ± 0.066 |
| W26L | -0.966 ± 0.052 |
| I77W | -0.033 ± 0.047 |
| I77Y | -0.043 ± 0.073 |
| I77A | 0.008 ± 0.042 |
| E20V | -0.019 ± 0.023 |
| R8H | -0.095 ± 0.058 |
| R8D | -0.093 ± 0.066 |
| R8W | -0.169 ± 0.043 |
| R8Y | -0.212 ± 0.066 |
| G1E | -0.042 ± 0.068 |
| G1N | 0.143 ± 0.27 |
| G1C | -0.21 ± 0.11 |
| G1S | -0.039 ± 0.065 |
| G1D | 0.074 ± 0.062 |
| D25T | -0.038 ± 0.033 |
| D25S | -0.008 ± 0.028 |

| Variant | abundance fitness |
| --- | --- |
| D25P | -0.973 ± 0.08 |
| D25Q | -0.003 ± 0.048 |
| T19L | -0.376 ± 0.038 |
| T19E | -0.155 ± 0.064 |
| T19I | -0.705 ± 0.13 |
| T19R | -0.205 ± 0.03 |
| V31L | -0.326 ± 0.029 |
| V31G | -0.427 ± 0.03 |
| K4A | -0.178 ± 0.051 |
| K4R | -0.071 ± 0.036 |
| K37P | -0.043 ± 0.041 |
| K37Q | 0.005 ± 0.042 |
| K37V | -0.017 ± 0.026 |
| K37C | -0.128 ± 0.049 |
| K37F | -0.199 ± 0.06 |
| L36S | -0.751 ± 0.065 |
| L36R | -1.05 ± 0.094 |
| L36K | -0.58 ± 0.19 |
| L36M | -0.343 ± 0.089 |
| L71K | -0.978 ± 0.27 |
| L71V | -1.05 ± 0.079 |
| T21W | -0.196 ± 0.057 |
| T21D | 0.081 ± 0.065 |
| T21S | -0.016 ± 0.032 |
| D69A | -0.031 ± 0.037 |
| D69I | -0.038 ± 0.14 |

| Variant | abundance fitness |
| --- | --- |
| D69S | -0.053 ± 0.035 |
| D69P | 0.015 ± 0.049 |
| D69Q | -0.03 ± 0.066 |
| D69G | -0.059 ± 0.031 |
| D69L | -0.057 ± 0.036 |
| F44A | -0.769 ± 0.065 |
| F44E | -0.73 ± 0.1 |
| F44P | -0.892 ± 0.1 |
| Q6W | -0.1 ± 0.044 |
| Q6A | 0.019 ± 0.043 |
| Q6S | -0.005 ± 0.04 |
| Q6M | 0.024 ± 0.066 |
| G68K | -0.678 ± 0.099 |
| G68Y | -0.654 ± 0.13 |
| V23C | -0.559 ± 0.08 |
| V23D | -0.906 ± 0.13 |
| V23P | -0.985 ± 0.12 |
| V23F | -0.857 ± 0.11 |
| V67N | -0.242 ± 0.11 |
| V67E | 0.081 ± 0.094 |
| V67K | -0.305 ± 0.23 |
| V67S | -0.002 ± 0.066 |
| A53L | -0.227 ± 0.032 |
| A53P | -0.943 ± 0.082 |
| A53D | 0.067 ± 0.048 |
| A53F | -0.655 ± 0.066 |

| Variant | abundance fitness |
| --- | --- |
| A53M | -0.09 ± 0.052 |
| F41W | -0.1 ± 0.046 |
| F41C | -0.034 ± 0.044 |
| F41Q | -0.134 ± 0.066 |
| F41Y | 0.055 ± 0.055 |
| F41H | 0.045 ± 0.069 |
| F41D | -0.053 ± 0.037 |
| P12K | -0.419 ± 0.14 |
| P12F | -0.606 ± 0.095 |
| P12E | -0.413 ± 0.086 |
| P12M | -0.747 ± 0.14 |
| P12W | -0.706 ± 0.093 |
| E61C | -0.202 ± 0.083 |
| E61D | -0.013 ± 0.05 |
| N32E | -0.042 ± 0.043 |
| L78A | -0.299 ± 0.057 |
| L78N | -0.775 ± 0.15 |
| L78Q | -0.199 ± 0.053 |
| D65F | -0.221 ± 0.08 |
| D65N | 0.084 ± 0.074 |
| D65C | -0.057 ± 0.032 |
| R16L | -0.025 ± 0.046 |

Variants of: B2
Assay: as above
Conditions: Homo sapiens

| Variant | abundance fitness |
| --- | --- |
| R51S | -0.495 ± 0.053 |
| R51I | -0.104 ± 0.051 |
| R51T | -0.29 ± 0.075 |
| L34E | -0.891 ± 0.34 |
| S44N | -0.29 ± 0.075 |
| K32M | -0.17 ± 0.13 |
| K32N | -0.185 ± 0.061 |
| S31N | 0.195 ± 0.054 |
| A28T | -0.134 ± 0.069 |
| A28N | -0.24 ± 0.067 |
| H26N | 0.277 ± 0.052 |
| K42A | -0.058 ± 0.071 |
| G35T | 0.262 ± 0.059 |
| G35I | 0.173 ± 0.053 |
| I47W | -0.176 ± 0.083 |
| I13F | -0.263 ± 0.059 |
| R2P | -0.011 ± 0.085 |
| K46Y | -0.968 ± 0.081 |
| K17H | -0.47 ± 0.08 |
| L56P | -1.1 ± 0.22 |
| L56E | -0.212 ± 0.18 |

| Variant | abundance fitness |
| --- | --- |
| L41A | -0.671 ± 0.099 |
| M19T | -0.103 ± 0.064 |
| M19K | 0.021 ± 0.15 |
| M25N | -0.418 ± 0.075 |
| N5R | -0.852 ± 0.11 |
| E52W | -0.605 ± 0.14 |
| E52N | -0.793 ± 0.12 |
| P23G | -0.431 ± 0.064 |
| R15L | -0.445 ± 0.092 |
| M8Q | 0.324 ± 0.083 |
| V9F | -0.63 ± 0.07 |
| V9Q | -0.894 ± 0.25 |
| E45G | -1.04 ± 0.16 |
| E45K | -0.667 ± 0.24 |
| D24K | -0.578 ± 0.23 |
| D24T | -0.22 ± 0.08 |
| R16E | 0.082 ± 0.15 |
| K12C | -0.131 ± 0.07 |
| E20L | -0.27 ± 0.079 |
| S11H | -1.37 ± 0.45 |
